Test results taken from publication PMC12282080 (2025).

Legend:
[1] = target: T1, SFTSV Gn glycoprotein (G19-K452, C3 genotype) (SFTSV (severe fever with …)); test: BLI
[2] = target: T1, SFTSV Gn glycoprotein (G19-K452, C3 …); test: BLI; remark: listed apart in the source

B1: SD4-X monoclonal antibody (human IgG1) (antibody, V domains shown)
VH: QVQLVESGGGVVQPGRSLRLSCAASGFTFSSYGMHWVRQAPGKGLEWVAVISYDGSNKYYADSVKGRFTISRDNSKNTLYLQMNSLRAEDTAVYYCAKDRDYYGSGFFDYWGQGTLVTVSS
VL: DIQMTQSPSSLSASVGDRVTITCQASQDISNHLNWYQEKPGKVPKLLIYEASNVETGVPSRFSGSGSGTDFTFTISSLQPEDIATYYCQQYDNLPYTFGQGTKLEIK
B1 showed a Kd [1] of 1.11 nM and a koff [2] of 0.000108 s⁻¹.

B2: SD12 monoclonal antibody (human IgG1) (antibody, V domains shown)
VH: EVQLLESGGGLVQPGGSLRLSCAASGFIFSSYAMSWVRQAPGKGLEWVSAISGSGGSTYYADSVKGRFTISRDNSKNTLYLQMNSLRDEDTAVYYCAKDRSYVSSGFFDDWGQGTLVTVSS
VL: DIQMTQSPSSLSASVGDRVTITCQASQDISNYLNWYQQRPGKAPKLLIFEASNLETGVPSRFSGSGSGTDFTFTISSLQPEDIATYYCQQYENLLYTFGQGTKLEIK
With B2 the Kd [1] was 2.37 nM and the koff [2] was 0.000179 s⁻¹.

B3: SD4 monoclonal antibody (human IgG1) (antibody, V domains shown)
VH: QVQLVESGGGVVQPGRSLRLSCAASGFPFSGYGMHWVRQAPGKGLEWVAVISYDGSEKNYADSVKGRFTISRDNSKNTLYLQMNSLRVEDTAVYYCAKDRDYYGSGFYDYWGQGTLVTVSS
VL: DIQMTQSPSSLSASVGDRVTITCQASQHISNHLNWYQQKPGTAPTLLIYEASNLETGVPSRFSGSGSGTDFSFTISSLRPEDFATYYCQQYDNFPLTFGPGTTMDIK
Work on B3 yielded a koff [2] of 1.18e-05 s⁻¹.

B4: SD22 monoclonal antibody (human IgG1) (antibody, V domains shown)
VH: QVQLVESGGGVVQPGRSLRLSCAASGFTFSGFGMHWVRQAPGKGLEWVALISYDGSDTYYSDSVKGRFTISRDNSKNTLYLQLKSLRPDDTAVYYCVGDRDYFGSGFFDHWGQGTLVTVSS
VL: DIQMTQSPSSLSASIGDRVTITCRASRHITNHLNWYQHKPGRAPKLLIYEASNLQAGVPSRFSGSGSGTDFTFTISSLQPEDFATYYCQQYDNLPPAFGGGTKVDIK
B4 gave a Kd [1] of 0.205 nM and a koff [2] of 4.01e-05 s⁻¹.

B5: SD4-S monoclonal antibody (human IgG1) (antibody, V domains shown)
VH: QVQLVESGGGVLQPGRSLRLSCAASGFTFSGYGMHWVRQAPGKGLEWVAVISYDGSEKNYGDSVKGRFTISRDNSKNTLYLQINSLRTEDRAVYYCAKDRDYFGSGFFDYWGQGTLVTVSS
VL: DIQMTQSPSSLSASVGDRVTITCQASQDITKYLNWYQQKPGKAPKLLIFEASNLETGVPSRFSGSGSGTDFTFTISSLQPEDFATYYCQQYGDFPLTFGGGTKVEIK
B5 was tested, and the Kd [1] was 0.196 nM and the koff [2] was 2.9e-05 s⁻¹.
